Laboratory results from US20200255543A1 (ROCKEFELLER UNIVERSITY, published 2020).

Legend:
recombinant human MERTK [1] = biological target: T1, recombinant human MERTK (human, UniProt Q12866 21-505, limits assumed); experiment: biolayer interferometry, M19 loaded on AMQ sensor at 1 ug/mL, hMer in solution at 1.25 nM, local 1:1 fit
T1 construct: Analyte in solution in biolayer interferometry; also called hMer
T1 sequence: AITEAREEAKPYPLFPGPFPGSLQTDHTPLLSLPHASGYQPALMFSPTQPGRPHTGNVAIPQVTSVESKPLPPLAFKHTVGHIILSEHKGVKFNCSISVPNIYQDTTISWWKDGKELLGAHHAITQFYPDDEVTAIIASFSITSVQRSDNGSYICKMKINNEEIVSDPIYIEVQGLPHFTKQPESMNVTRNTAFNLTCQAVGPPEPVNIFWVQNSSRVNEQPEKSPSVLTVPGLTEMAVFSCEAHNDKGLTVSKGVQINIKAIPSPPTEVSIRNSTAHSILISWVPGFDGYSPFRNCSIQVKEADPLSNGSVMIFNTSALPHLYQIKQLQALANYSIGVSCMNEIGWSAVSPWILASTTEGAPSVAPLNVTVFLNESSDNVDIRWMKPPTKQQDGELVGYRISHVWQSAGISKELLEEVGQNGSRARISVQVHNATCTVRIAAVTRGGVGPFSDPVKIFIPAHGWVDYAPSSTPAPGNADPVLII
Method: (§1) FIG. 7: M19 binds to human MERTK with high affinity. A diagram showing antibody binding kinetics for M19 (Mer-M19) against human MERTK (hMer) using biolayer interferometry. Purified M19 was loaded on an AMQ sensor at a concentration of 1 microgram/mL to test binding against analytes in solution. All analytes were prepared at 5 nM with a 2-fold dilution series for a total of 7 concentrations. Kinetic fits were calculated using a 1:1 model, with Local fits for each concentration as well as an overall global fit.
(§2) To characterize the binding affinity of M19 antibody against recombinant human and mouse MERTK, biomolecular interaction analysis was performed using biolayer interferometry (FIG. 7 and FIG. 8). Binding was observed between M19 and both mouse and human MERTK.

recombinant mouse MERTK [2] = biological target: T2, recombinant mouse MERTK (mouse, UniProt Q60805 23-496, limits assumed); experiment: biolayer interferometry, M19 loaded on AMQ sensor at 1 ug/mL, msMer in solution at 0.625 nM, local 1:1 fit
T2 construct: Analyte in solution in biolayer interferometry; also called msMer; murine MERTK
T2 sequence (looked up): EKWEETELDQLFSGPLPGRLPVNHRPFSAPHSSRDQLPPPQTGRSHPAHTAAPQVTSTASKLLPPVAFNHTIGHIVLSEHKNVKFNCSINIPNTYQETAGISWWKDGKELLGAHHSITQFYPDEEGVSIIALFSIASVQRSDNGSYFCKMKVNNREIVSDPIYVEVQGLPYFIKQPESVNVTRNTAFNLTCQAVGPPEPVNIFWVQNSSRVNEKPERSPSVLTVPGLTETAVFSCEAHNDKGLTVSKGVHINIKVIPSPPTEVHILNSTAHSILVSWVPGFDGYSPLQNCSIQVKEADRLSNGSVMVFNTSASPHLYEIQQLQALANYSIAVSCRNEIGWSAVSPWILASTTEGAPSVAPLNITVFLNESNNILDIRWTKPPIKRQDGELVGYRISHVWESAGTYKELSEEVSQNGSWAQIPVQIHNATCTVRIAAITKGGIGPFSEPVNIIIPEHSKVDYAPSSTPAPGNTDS
Method: as §1, with “8:” for “7:”, “murine” for “human”, “(msMer)” for “(hMer)”, “Global” for “global”
as §2

recombinant mouse MERTK [3] = biological target: T2, recombinant mouse MERTK; experiment: biolayer interferometry, M19 loaded on AMQ sensor at 1 ug/mL, msMer in solution at 0.0781 nM, local 1:1 fit
Method: as §1, with “8:” for “7:”, “murine” for “human”, “(msMer)” for “(hMer)”, “Global” for “global”
as §2

recombinant human MERTK [4] = biological target: T1, recombinant human MERTK; experiment: biolayer interferometry, global fit; human MERTK
Method: as §1

recombinant human MERTK [5] = biological target: T1, recombinant human MERTK; experiment: biolayer interferometry, M19 loaded on AMQ sensor at 1 ug/mL, hMer in solution at 0.3125 nM, local 1:1 fit
Method: as §1, §2

recombinant mouse MERTK [6] = biological target: T2, recombinant mouse MERTK; experiment: biolayer interferometry, M19 loaded on AMQ sensor at 1 ug/mL, msMer in solution at 0.1563 nM, local 1:1 fit
Method: as §1, with “8:” for “7:”, “murine” for “human”, “(msMer)” for “(hMer)”, “Global” for “global”
as §2

recombinant human MERTK [7] = biological target: T1, recombinant human MERTK; experiment: biolayer interferometry, M19 loaded on AMQ sensor, hMer analyte from 5 nM in 2-fold dilutions, 1:1 model, global fit
Method: as §1

recombinant mouse MERTK [8] = biological target: T2, recombinant mouse MERTK; experiment: biolayer interferometry, M19 loaded on AMQ sensor at 1 ug/mL, msMer in solution at 0.3125 nM, local 1:1 fit
Method: as §1, with “8:” for “7:”, “murine” for “human”, “(msMer)” for “(hMer)”, “Global” for “global”
as §2

recombinant mouse MERTK [9] = biological target: T2, recombinant mouse MERTK; experiment: biolayer interferometry, M19 loaded on AMQ sensor at 1 ug/mL, msMer in solution at 2.5 nM, local 1:1 fit
Method: as §1, with “8:” for “7:”, “murine” for “human”, “(msMer)” for “(hMer)”, “Global” for “global”
as §2

recombinant mouse MERTK [10] = biological target: T2, recombinant mouse MERTK; experiment: biolayer interferometry, M19 loaded on AMQ sensor at 1 ug/mL, msMer in solution at 5 nM, local 1:1 fit
Method: as §1, with “8:” for “7:”, “murine” for “human”, “(msMer)” for “(hMer)”, “Global” for “global”
as §2

B1: monoclonal antibody M19 (antibody, V domains shown)
VH: EVQLEESGPDLKKPGETVKISCKASNYTFTDYSMHWVKQAPGKGLKWVGWINTDTGEPTYADDFKGRFAFSLETSASTAYLQINNLKNEDTATYFCARWFGAMDYWGQGTSVTVSS
VL: DIVITQSHKFMSTSVGDRVSITCKASQDVTNVVAWYQQKPGQSPKLLIYSASYRYTGVPDRFTGSGSGTDFTFTISSVQAEDLAVYYCQQYYRTPRTFGGGTKLEIKR
notes: Mouse hybridoma monoclonal antibody; Hybridoma supernatant was used in the ELISA screen, purified antibody in biolayer interferometry; also called Mer-M19
Recombinant human MERTK [1]
  Kd: 0.297 nM
  koff: 0.00102 s⁻¹
  kon: 3.44e+06 M⁻¹ s⁻¹
Recombinant mouse MERTK [2]
  Kd: 0.198 nM
  koff: 0.00137 s⁻¹
  kon: 6.92e+06 M⁻¹ s⁻¹
Recombinant mouse MERTK [3]
  Kd: 0.0472 nM
  koff: 0.00108 s⁻¹
  kon: 2.29e+07 M⁻¹ s⁻¹
Recombinant human MERTK [4]
  Kd: ~0.3 nM
Recombinant human MERTK [5]
  Kd: 0.128 nM
  koff: 0.000968 s⁻¹
  kon: 7.57e+06 M⁻¹ s⁻¹
Recombinant mouse MERTK [6]
  Kd: 0.117 nM
  koff: 0.00129 s⁻¹
  kon: 1.1e+07 M⁻¹ s⁻¹
Recombinant human MERTK [7]
  Kd: 0.326 nM
Recombinant mouse MERTK [8]
  Kd: 0.115 nM
  koff: 0.00106 s⁻¹
  kon: 9.23e+06 M⁻¹ s⁻¹
Recombinant mouse MERTK [9]
  Kd: 0.341 nM
  koff: 0.00159 s⁻¹
  kon: 4.66e+06 M⁻¹ s⁻¹
Recombinant mouse MERTK [10]
  Kd: 0.354 nM
  koff: 0.00133 s⁻¹
  kon: 3.77e+06 M⁻¹ s⁻¹
